In the supplement of paper PMC10065799, “High-throughput profiling of sequence recognition by tyrosine kinases and SH2 domains using bacterial peptide display” (eLife, 2023):

Tests used:
Grb2 SH2 = Grb2 SH2 (UniProt P62993); experiment: SH2 binding enrichment of the phosphorylated peptide, bacterial display (enrichment ratio); higher = better substrate or ligand; peptides without Tyr show the background
SHP2-C SH2 = experiment: as above
c-Src SH2 = experiment: as above
FGFR3 = FGFR3 (UniProt P22607); experiment: phosphorylation enrichment, bacterial display (enrichment ratio); higher = better substrate or ligand; peptides without Tyr show the background
Jak2 = Jak2 (UniProt O60674); experiment: as above
Jak2, sequence (O60674 whole entry, looked up): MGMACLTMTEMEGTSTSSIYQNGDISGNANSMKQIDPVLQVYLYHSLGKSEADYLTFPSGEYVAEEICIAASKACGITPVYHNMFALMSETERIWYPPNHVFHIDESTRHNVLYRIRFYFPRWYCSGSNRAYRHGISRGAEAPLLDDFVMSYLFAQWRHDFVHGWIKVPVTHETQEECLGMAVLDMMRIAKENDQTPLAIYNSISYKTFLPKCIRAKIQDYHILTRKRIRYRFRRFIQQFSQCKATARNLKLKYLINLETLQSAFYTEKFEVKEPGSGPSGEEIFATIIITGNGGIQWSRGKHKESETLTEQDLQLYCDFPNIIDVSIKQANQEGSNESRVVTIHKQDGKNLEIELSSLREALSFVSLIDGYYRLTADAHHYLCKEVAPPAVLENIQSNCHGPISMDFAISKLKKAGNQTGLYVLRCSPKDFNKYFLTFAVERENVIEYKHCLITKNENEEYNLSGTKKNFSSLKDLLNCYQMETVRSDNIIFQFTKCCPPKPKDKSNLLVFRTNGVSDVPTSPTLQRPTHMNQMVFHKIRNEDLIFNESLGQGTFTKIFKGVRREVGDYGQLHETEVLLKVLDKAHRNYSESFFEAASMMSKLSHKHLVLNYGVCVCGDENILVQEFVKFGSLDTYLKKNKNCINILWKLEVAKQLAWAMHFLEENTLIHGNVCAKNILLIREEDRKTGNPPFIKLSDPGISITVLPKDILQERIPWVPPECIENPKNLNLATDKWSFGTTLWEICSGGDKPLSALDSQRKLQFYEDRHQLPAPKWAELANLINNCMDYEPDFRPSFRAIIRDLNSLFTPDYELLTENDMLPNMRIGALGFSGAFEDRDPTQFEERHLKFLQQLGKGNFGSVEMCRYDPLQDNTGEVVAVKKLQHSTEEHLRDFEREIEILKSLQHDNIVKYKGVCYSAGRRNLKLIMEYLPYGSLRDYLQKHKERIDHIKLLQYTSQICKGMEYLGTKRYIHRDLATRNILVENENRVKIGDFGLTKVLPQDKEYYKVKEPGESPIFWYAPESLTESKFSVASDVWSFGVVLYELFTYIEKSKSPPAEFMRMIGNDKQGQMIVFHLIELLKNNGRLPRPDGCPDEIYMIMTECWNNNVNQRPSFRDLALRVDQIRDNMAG

AncSZ = experiment: as above
MERTK = MERTK (UniProt Q12866); experiment: as above
FGFR1 = FGFR1 (UniProt P11362); experiment: as above
FGFR1, sequence (P11362 whole entry, looked up): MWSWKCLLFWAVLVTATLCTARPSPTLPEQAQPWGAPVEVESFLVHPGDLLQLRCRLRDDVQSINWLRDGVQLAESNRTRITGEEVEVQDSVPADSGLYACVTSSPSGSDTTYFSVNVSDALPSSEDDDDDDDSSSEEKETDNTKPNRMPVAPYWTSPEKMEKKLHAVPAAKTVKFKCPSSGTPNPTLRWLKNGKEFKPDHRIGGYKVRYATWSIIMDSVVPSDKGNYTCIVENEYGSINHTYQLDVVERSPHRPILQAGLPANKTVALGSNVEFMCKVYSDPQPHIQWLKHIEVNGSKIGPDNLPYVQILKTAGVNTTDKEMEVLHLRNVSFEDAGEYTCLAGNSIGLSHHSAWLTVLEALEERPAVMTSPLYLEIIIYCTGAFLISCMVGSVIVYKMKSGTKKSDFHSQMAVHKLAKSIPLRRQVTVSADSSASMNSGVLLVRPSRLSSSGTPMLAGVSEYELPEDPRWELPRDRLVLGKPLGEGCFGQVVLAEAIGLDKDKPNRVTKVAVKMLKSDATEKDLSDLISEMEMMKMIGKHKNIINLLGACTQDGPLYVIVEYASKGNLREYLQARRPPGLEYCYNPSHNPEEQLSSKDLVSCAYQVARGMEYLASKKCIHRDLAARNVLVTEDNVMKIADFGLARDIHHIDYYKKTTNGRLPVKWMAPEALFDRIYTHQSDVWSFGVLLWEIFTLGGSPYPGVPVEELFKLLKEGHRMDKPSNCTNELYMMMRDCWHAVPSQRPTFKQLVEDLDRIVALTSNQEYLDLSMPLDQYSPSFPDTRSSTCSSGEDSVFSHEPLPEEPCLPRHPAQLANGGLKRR

Fyn = Fyn (UniProt P06241); experiment: as above
Fyn, sequence (P06241 whole entry, looked up): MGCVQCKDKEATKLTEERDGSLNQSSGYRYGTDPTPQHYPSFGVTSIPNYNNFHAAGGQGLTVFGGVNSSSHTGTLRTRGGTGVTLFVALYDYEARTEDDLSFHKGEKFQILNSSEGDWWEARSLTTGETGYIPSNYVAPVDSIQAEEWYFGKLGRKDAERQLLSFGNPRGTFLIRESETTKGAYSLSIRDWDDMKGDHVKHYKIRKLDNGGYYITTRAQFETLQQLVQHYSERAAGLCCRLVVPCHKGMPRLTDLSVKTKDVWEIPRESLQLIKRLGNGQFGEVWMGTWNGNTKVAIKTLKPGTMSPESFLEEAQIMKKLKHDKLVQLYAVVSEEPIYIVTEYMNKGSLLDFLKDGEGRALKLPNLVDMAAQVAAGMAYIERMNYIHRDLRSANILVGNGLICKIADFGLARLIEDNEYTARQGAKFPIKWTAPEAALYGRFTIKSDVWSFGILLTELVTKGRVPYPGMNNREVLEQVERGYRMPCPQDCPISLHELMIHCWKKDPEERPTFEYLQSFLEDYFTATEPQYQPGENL

Fer (mouse) = experiment: as above
EPHB1 = EPHB1 (UniProt P54762); experiment: as above
EPHB1, sequence (P54762 whole entry, looked up): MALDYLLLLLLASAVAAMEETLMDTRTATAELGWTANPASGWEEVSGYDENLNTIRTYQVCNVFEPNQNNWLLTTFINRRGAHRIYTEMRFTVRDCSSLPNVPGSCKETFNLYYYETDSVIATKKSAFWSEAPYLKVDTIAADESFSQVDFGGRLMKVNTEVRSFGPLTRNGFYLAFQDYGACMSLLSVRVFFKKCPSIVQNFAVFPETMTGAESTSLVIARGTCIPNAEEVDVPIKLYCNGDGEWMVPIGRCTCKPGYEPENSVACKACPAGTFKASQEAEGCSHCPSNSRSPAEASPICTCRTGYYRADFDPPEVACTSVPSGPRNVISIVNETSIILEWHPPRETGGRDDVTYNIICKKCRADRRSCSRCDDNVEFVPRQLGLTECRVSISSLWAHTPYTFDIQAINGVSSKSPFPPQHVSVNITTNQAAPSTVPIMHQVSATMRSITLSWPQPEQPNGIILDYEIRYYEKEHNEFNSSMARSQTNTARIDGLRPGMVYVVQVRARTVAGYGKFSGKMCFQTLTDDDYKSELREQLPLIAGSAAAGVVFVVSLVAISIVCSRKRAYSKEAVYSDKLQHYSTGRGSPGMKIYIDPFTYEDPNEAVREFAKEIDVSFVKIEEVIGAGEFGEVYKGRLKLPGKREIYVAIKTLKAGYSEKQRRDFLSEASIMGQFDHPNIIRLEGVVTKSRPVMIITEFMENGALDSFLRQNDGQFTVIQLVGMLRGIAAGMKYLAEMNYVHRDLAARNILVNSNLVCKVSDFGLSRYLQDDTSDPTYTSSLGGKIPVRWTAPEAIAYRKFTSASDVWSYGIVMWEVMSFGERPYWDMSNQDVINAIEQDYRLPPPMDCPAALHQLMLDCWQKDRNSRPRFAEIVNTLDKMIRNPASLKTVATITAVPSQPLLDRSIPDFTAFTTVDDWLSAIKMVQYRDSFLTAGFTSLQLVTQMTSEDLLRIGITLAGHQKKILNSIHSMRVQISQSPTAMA

c-Abl (mouse) = experiment: as above
EPHB2 = EPHB2 (UniProt P29323); experiment: as above
EPHB2, sequence (P29323 whole entry, looked up): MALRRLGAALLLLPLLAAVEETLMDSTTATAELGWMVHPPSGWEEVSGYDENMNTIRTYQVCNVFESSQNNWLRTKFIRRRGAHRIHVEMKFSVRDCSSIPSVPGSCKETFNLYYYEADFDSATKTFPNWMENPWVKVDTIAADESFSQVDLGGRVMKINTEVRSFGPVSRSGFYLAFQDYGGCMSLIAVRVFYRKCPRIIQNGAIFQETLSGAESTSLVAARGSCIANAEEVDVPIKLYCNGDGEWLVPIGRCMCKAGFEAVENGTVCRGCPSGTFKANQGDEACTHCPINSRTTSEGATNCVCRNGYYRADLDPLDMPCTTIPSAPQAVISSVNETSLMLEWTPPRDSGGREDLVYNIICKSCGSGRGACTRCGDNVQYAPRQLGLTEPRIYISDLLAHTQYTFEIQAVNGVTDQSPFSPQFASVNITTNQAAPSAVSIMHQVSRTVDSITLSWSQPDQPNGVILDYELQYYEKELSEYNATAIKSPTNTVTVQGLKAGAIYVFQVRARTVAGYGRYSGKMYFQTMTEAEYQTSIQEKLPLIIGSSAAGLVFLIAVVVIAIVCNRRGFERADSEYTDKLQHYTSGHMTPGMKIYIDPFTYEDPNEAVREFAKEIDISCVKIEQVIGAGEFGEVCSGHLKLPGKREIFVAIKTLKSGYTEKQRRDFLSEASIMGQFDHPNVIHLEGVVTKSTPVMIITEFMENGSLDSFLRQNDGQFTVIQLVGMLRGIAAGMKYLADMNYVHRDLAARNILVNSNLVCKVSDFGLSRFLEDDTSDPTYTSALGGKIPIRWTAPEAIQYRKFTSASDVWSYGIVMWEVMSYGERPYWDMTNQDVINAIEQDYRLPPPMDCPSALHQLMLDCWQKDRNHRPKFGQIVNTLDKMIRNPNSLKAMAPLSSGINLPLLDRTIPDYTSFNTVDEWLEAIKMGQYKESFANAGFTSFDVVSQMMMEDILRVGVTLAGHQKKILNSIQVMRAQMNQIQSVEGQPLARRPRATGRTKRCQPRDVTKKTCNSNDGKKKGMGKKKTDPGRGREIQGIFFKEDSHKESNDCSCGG

c-Src = experiment: as above
Fes = Fes (UniProt P07332); experiment: as above
Hck = Hck (UniProt P08631); experiment: as above
Hck, sequence (P08631 whole entry, looked up, the tested form may be a part): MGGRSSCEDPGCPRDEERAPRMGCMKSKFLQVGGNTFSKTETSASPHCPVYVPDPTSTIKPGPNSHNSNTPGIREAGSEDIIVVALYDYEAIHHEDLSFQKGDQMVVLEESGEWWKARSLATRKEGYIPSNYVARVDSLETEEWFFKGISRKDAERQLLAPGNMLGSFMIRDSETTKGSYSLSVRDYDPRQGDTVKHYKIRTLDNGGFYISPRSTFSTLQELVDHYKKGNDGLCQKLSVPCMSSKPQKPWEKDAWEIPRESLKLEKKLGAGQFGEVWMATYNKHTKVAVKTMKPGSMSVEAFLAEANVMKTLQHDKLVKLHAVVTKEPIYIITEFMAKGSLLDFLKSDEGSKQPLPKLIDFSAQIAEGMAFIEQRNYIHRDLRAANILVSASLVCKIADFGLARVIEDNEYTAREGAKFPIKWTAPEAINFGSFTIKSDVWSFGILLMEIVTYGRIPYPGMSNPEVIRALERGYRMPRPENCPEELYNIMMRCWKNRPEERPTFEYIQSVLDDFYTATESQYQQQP
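For SH2 binding enrichment of the phosphorylated peptide, bacterial display in this document: peptide library displayed on the E. coli surface as eCPX fusions, selected cells deep-sequenced, score is each peptide's frequency after selection divided by its frequency in the input.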
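For phosphorylation enrichment, bacterial display in this document: 11-residue human phosphosite peptides and single-mutation variants displayed on the E. coli surface, counted by deep sequencing, each peptide's frequency after selection divided by its frequency in the unselected input library; frequency after pTyr selection over input frequency; kinase dosed for 20-30% of maximal phosphorylation in three min.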

| Sequence | SH2 binding enrichment (Grb2 SH2) | SH2 binding enrichment (SHP2-C SH2) | SH2 binding enrichment (c-Src SH2) | phosphorylation enrichment (FGFR3) | phosphorylation enrichment (Jak2) | phosphorylation enrichment (AncSZ) | phosphorylation enrichment (MERTK) | phosphorylation enrichment (FGFR1) | phosphorylation enrichment (Fyn) | phosphorylation enrichment (Fer (mouse)) | phosphorylation enrichment (EPHB1) | phosphorylation enrichment (c-Abl (mouse)) | phosphorylation enrichment (EPHB2) | phosphorylation enrichment (c-Src) | phosphorylation enrichment (Fes) | phosphorylation enrichment (Hck) |
| --- | --- | --- | --- | --- | --- | --- | --- | --- | --- | --- | --- | --- | --- | --- | --- | --- |
| EKDSNYCLCRT [ASIC2_Y357] | 0.976 | 0.789 | 0.778 | 0.605 | 0.763 | 0.772 | 0.601 | 0.556 | 0.569 | 0.442 | 0.551 | 0.573 | 0.634 | 0.506 | 0.883 | 0.513 |
| EKLIQYCQSKS [AKR1B1_Y199_G204S] | 0.964 | 0.755 | 0.609 | 0.642 | 0.562 | 0.679 | 0.395 | 0.459 | 0.475 | 0.476 | 0.584 | 0.638 | 0.588 | 0.448 | 0.807 | 0.46 |
| EKQVAYCPSGK [ROS1_Y2323] | 0.879 | 0.844 | 0.464 | 0.505 | 0.638 | 0.634 | 0.412 | 0.49 | 0.383 | 0.32 | 0.413 | 0.567 | 0.445 | 0.358 | 0.795 | 0.442 |
| ELSDGYWVVSN [TPP1_Y459_A454E] | 0.636 | 0.616 | 7.16 | 1.21 | 1.63 | 1.39 | 0.396 | 1.3 | 0.507 | 0.528 | 0.559 | 0.778 | 0.664 | 0.588 | 1.34 | 0.647 |
| ENEGTYVCIAT [ADAMTSL3_Y1365] | 0.74 | 0.6 | 0.395 | 1.45 | 1.1 | 1.46 | 0.662 | 1.29 | 1.44 | 1.3 | 1.73 | 0.852 | 1.16 | 1.62 | 1.38 | 1.08 |
| EPDSLYGCGGG [ATM_Y2019] | 0.977 | 0.854 | 0.619 | 0.674 | 1.11 | 1.01 | 0.6 | 0.619 | 2.06 | 1.06 | 0.663 | 1.04 | 0.766 | 2.33 | 1.26 | 2.94 |
| EPFEVYRIVPE [IRF8_Y110_K108E_YF] | 0.916 | 0.535 | 0.521 | 1.03 | 0.882 | 1.05 | 0.62 | 1.25 | 3.41 | 0.411 | 0.662 | 0.798 | 0.72 | 3.68 | 1.03 | 2.37 |
| EPNSRYTFKLE [USH2A_Y3745_YF] | 0.818 | 0.669 | 0.476 | 0.596 | 0.76 | 0.808 | 0.373 | 0.379 | 0.408 | 0.397 | 0.479 | 0.658 | 0.448 | 0.365 | 0.963 | 0.393 |
| EPSVPYRGMVF [GLI3_Y104_T107M] | 0.804 | 0.567 | 0.414 | 0.508 | 0.639 | 0.704 | 0.432 | 0.422 | 0.413 | 0.38 | 0.43 | 0.471 | 0.56 | 0.462 | 0.816 | 0.376 |
| EPSVPYRGTVF [GLI3_Y104] | 0.803 | 0.711 | 0.491 | 0.478 | 0.783 | 0.566 | 0.487 | 0.447 | 0.545 | 0.424 | 0.447 | 0.534 | 0.567 | 0.46 | 0.698 | 0.441 |
| EPYELYCEMGS [CBL_Y371_Q367P] | 1.11 | 0.564 | 0.695 | 3.14 | 1.61 | 3.71 | 3.54 | 3.54 | 4.13 | 3.52 | 5.73 | 2.36 | 6.42 | 4.82 | 1.74 | 4.22 |
| EQKKYSNAMKK [SCN5A_Y1495_Y1495S] | 0.868 | 0.627 | 0.646 | 0.459 | 0.437 | 0.498 | 0.29 | 0.304 | 0.322 | 0.247 | 0.326 | 0.469 | 0.333 | 0.262 | 0.53 | 0.467 |
| EQPNPYMVLDI [ROCK2_Y1197_S1194P] | 0.869 | 0.785 | 0.732 | 1.09 | 1.06 | 1.15 | 2.06 | 1.13 | 2.46 | 2.87 | 0.653 | 0.575 | 0.571 | 3.03 | 1.07 | 1.23 |
| EREYKYDAHNY [OAT_Y50_G51D] | 0.781 | 0.74 | 0.703 | 0.574 | 0.8 | 0.757 | 0.429 | 0.445 | 0.434 | 0.559 | 0.412 | 0.705 | 0.575 | 0.367 | 1 | 0.498 |
| ERIEFYELDKK [PMM2_Y145] | 0.728 | 0.626 | 0.708 | 0.76 | 0.892 | 1.05 | 0.393 | 0.395 | 0.484 | 0.742 | 0.652 | 0.771 | 0.554 | 0.49 | 1.09 | 0.588 |
| ERIEFYELNKK [PMM2_Y145_D148N] | 0.822 | 0.492 | 0.467 | 0.541 | 0.731 | 0.968 | 0.506 | 0.489 | 0.497 | 0.619 | 0.542 | 0.486 | 0.71 | 0.507 | 0.844 | 0.486 |
| ESLRSYDVMDV [KCNQ2_Y562_P561S] | 0.712 | 0.473 | 9.05 | 0.993 | 0.921 | 1.03 | 0.523 | 0.581 | 0.556 | 0.555 | 0.663 | 0.817 | 0.714 | 0.509 | 1.28 | 0.616 |

| Sequence | SH2 binding enrichment (Grb2 SH2) | SH2 binding enrichment (SHP2-C SH2) | SH2 binding enrichment (c-Src SH2) | phosphorylation enrichment (FGFR3) | phosphorylation enrichment (Jak2) | phosphorylation enrichment (AncSZ) | phosphorylation enrichment (MERTK) | phosphorylation enrichment (FGFR1) | phosphorylation enrichment (Fyn) | phosphorylation enrichment (Fer (mouse)) | phosphorylation enrichment (EPHB1) | phosphorylation enrichment (c-Abl (mouse)) | phosphorylation enrichment (EPHB2) | phosphorylation enrichment (c-Src) | phosphorylation enrichment (Fes) | phosphorylation enrichment (Hck) |
| --- | --- | --- | --- | --- | --- | --- | --- | --- | --- | --- | --- | --- | --- | --- | --- | --- |
| ESLSSYRESAK [APOC2_Y47_W48R] | 0.858 | 0.795 | 0.556 | 0.456 | 0.487 | 0.63 | 0.391 | 0.382 | 0.342 | 0.314 | 0.252 | 0.495 | 0.317 | 0.303 | 0.529 | 0.305 |
| ESLSSYWESAK [APOC2_Y47] | 0.889 | 0.753 | 0.713 | 0.692 | 0.888 | 0.84 | 0.381 | 0.63 | 0.414 | 0.354 | 0.527 | 0.584 | 0.576 | 0.392 | 1.01 | 0.464 |
| ESTPLYPMLFG [SCLY_Y280_F276S] | 0.931 | 0.891 | 0.554 | 8.03 | 1.09 | 0.768 | 2.23 | 11.7 | 0.6 | 0.507 | 0.686 | 0.619 | 0.508 | 0.47 | 0.969 | 0.503 |
| ETAENYLGFTA [HSPA9_Y181_H184Y_YF] | 0.703 | 0.654 | 0.45 | 0.807 | 0.855 | 1.17 | 0.514 | 0.578 | 0.505 | 0.486 | 0.743 | 0.879 | 0.633 | 0.569 | 1.1 | 0.53 |
| ETKENYGKTLK [CHL1_Y291] | 1.16 | 0.562 | 0.664 | 0.508 | 0.504 | 0.526 | 0.383 | 0.325 | 0.61 | 0.351 | 0.348 | 0.414 | 0.297 | 0.433 | 0.541 | 0.498 |
| ETKGDYEKILV [ANXA1_Y335] | 0.815 | 0.54 | 1.08 | 0.682 | 1.01 | 1.16 | 0.454 | 0.548 | 0.506 | 1.04 | 0.713 | 0.82 | 0.625 | 0.523 | 1.17 | 0.651 |
| EVGRVYLFLQP [ITGA2B_Y360] | 0.726 | 0.737 | 0.417 | 0.676 | 1.3 | 1.18 | 0.34 | 0.401 | 0.379 | 0.627 | 0.838 | 0.884 | 0.676 | 0.409 | 1.51 | 0.445 |
| EVKRLYGSVCD [TC2N_Y154] | 0.714 | 0.744 | 0.56 | 0.703 | 1.06 | 0.866 | 0.515 | 0.475 | 0.695 | 0.543 | 0.529 | 0.849 | 0.585 | 0.656 | 1.16 | 0.61 |
| EVLKNYSQQKD [GOLGA4_Y1551_N1552S] | 0.887 | 0.782 | 0.501 | 0.56 | 0.657 | 0.545 | 0.458 | 0.404 | 0.438 | 0.417 | 0.419 | 0.494 | 0.456 | 0.433 | 0.609 | 0.476 |
| EVTQDYGLDPK [FH_Y110_N107T] | 0.672 | 0.648 | 0.461 | 0.902 | 1.06 | 1.32 | 0.528 | 0.558 | 0.513 | 0.625 | 0.606 | 0.842 | 0.637 | 0.504 | 1.36 | 0.574 |
| EVVGKYSVHNA [MLH1_Y183_R182K] | 0.954 | 0.842 | 0.455 | 0.449 | 0.569 | 0.612 | 0.374 | 0.352 | 0.428 | 0.426 | 0.363 | 0.527 | 0.363 | 0.438 | 0.697 | 0.388 |
| EYKKKYSDADI [CKAP5_Y1860] | 0.819 | 0.614 | 0.435 | 0.475 | 0.671 | 0.709 | 0.383 | 0.404 | 0.442 | 0.399 | 0.393 | 0.637 | 0.474 | 0.371 | 0.819 | 0.367 |
| EYYENYIEELK [PARP4_Y218_F215Y] | 2.13 | 0.706 | 1.04 | 3.7 | 1.11 | 2.04 | 0.38 | 4.75 | 0.648 | 0.706 | 1.09 | 0.775 | 0.967 | 1.01 | 1.29 | 0.554 |
| FADIAYNFHHG [PAH_Y166_R169H_YF] | 0.62 | 0.564 | 0.566 | 0.478 | 0.43 | 0.686 | 0.406 | 0.515 | 0.704 | 0.483 | 0.427 | 0.354 | 0.524 | 0.501 | 0.725 | 0.528 |
| FALAEYTEVKT [ALDH1A3_Y497_YF] | 0.861 | 0.506 | 1.9 | 0.903 | 0.765 | 1.03 | 0.45 | 0.894 | 0.719 | 0.567 | 0.59 | 0.757 | 0.475 | 0.621 | 1.11 | 0.635 |
| FARNSYVAGQF [G6PD_Y107_YF] | 0.81 | 0.517 | 0.442 | 0.522 | 0.522 | 0.662 | 0.427 | 0.503 | 0.489 | 0.36 | 0.321 | 0.442 | 0.398 | 0.408 | 0.712 | 0.501 |
